Experimental data reported in patent US20230416345A1, “NEW TYPE II COLLAGEN BINDING PROTEINS” (Navigo Proteins GmbH, priority 2020, published 2023).
Changes are numbered by the printed parent chain.

Assays:
[1] = biological target: T1, human collagen type I (h Col I) (Homo sapiens, UniProt P02452+P08123); assay: ELISA specificity vs human collagen type I; type: binding
T1 construct: purchased Sigma C5483-1MG
Protocol: (§1) High binding plates (Greiner, 781061) were immobilized with 2.5 μg/ml recombinant human collagen type II (h Col II, Chondrex, CHX-20051), rabbit collagen type II (rbCol II, prepared from rabbit eyes), porcine collagen type II (p Col II, prepared from porcine eyes), human collagen type I, (h Col I, Sigma, C5483-1MG), human collagen type V (h Col V, Abcam, ab7537), human collagen type III (h Col Ill, Abcam, ab7535) and 67B89 (domain of fibronectin, produced in E. coli) respectively over night at 4° C. ELISA-plates were washed 3 times with PBST (PBS+ 0.1% Tween) and blocked with 3% BSA/0.5% Tween/PBS 2 h at RT. After washing with PBST, dilution series of 1.1 μM to 7×10^−4 nM of dimers (CID 211999, CID 212000), dilution series of 100 nM to 7×10^−6 nM of tetramers (CID 212001 and CID 212704) and dilution series of 10 μM to 2 nM of dimer (CID 212705) were incubated on ELISA-plates 1 h at rt. Plates were washed with PBST and incubated with biotinylated anti-StrepTag-ab (Antikörper-online, ABIN1573895) with a dilution of 1:10.000 for 1 h at rt. The binding was visualized with a-rabbit-IgG-HRP (Sigma, A9169) with a dilution of 1:10.000 and as substrate TMB Plus von KEM EN TEC Diagnostic, Kat-Nr. 4395.

human collagen type III = biological target: T2, human collagen type III (Homo sapiens, UniProt P02461); assay: ELISA specificity vs human collagen type III; type: binding
T2 construct: purchased Abcam ab7535
T2 sequence (P02461 154-1221 limits assumed): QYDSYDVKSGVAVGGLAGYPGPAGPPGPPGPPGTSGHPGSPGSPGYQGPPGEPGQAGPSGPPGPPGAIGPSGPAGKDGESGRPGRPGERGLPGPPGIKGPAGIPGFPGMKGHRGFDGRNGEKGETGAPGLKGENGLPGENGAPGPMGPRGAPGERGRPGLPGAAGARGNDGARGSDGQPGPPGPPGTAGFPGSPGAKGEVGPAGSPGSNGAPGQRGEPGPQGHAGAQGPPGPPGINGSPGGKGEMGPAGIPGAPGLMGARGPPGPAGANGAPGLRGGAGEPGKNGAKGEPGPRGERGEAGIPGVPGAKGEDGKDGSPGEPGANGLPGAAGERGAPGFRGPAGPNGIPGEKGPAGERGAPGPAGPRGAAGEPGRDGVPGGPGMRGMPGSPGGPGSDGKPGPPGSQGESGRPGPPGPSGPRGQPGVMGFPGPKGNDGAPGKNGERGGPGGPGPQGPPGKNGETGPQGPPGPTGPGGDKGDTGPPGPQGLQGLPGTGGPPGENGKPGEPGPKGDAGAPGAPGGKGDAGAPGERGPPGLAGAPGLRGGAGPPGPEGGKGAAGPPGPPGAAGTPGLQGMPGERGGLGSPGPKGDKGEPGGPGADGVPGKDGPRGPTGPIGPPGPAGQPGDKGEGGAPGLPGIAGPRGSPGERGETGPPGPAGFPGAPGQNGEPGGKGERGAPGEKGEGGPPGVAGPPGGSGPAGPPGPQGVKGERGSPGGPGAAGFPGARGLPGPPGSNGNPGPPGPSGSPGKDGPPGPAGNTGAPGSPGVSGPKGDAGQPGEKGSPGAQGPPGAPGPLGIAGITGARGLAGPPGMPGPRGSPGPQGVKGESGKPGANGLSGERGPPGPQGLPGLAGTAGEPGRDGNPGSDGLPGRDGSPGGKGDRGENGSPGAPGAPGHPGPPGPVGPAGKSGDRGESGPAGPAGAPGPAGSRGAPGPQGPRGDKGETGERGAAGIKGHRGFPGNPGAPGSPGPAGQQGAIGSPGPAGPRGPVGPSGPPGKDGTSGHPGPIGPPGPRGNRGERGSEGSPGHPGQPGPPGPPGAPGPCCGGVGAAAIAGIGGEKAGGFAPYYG
Protocol: as §1

[2] = biological target: T3, hCol2 (human Type II collagen) (Homo sapiens, UniProt P02458); assay: Binding analysis by SPR (Biacore 3000) vs human type II collagen; settings: for Affinity [SPR] vs hCol2: dimers or tetramers, Langmuir 1:1 model
T3 construct: purchased Chondrex
Protocol: (§2) Proteins with affinity tag were purified by affinity chromatography and size exclusion. After affinity chromatography purification using Strep-Tactin Superflow high capacity cartridges (IBA Lifesciences) a size exclusion chromatography (SEC) was performed using an Äkta system and a Superdex™ 200 HiLoad 16/600 column (Cytiva). Fused variants with Aflibercept were purified via MabSelect SuRe (Cytiva) affinity chromatography followed by a size exclusion chromatography (SEC) using an Äkta system and a Superdex™ 200 HiLoad 16/600 column (Cytiva). All chromatography processing steps were carried out on AKTA systems using matrices from Cytiva. Homogenous species of all purified ligands were obtained; no aggregation was detected. Following SOS-PAGE analysis positive fractions were pooled and their protein concentrations were measured. Further analysis included SOS-PAGE, SE-HPLC and RP-HPLC. Protein concentrations were determined by absorbance measurement at 280 nm using the molar absorbent coefficient. Reversed phase chromatography (RP-HPLC) was performed using a Dionex HPLC system and a PLRP-S (5 μm, 300 Å) column (Agilent). Analytic size exclusion chromatography (SE-HPLC) was performed using a Dionex HPLC system and a Superdex200 increase 5/150 GL (Cytiva). Binding of Collagen II was evaluated by SPR measurements using a Biacore 3000 system. Purified Collagen II was obtained from Chondrex.inc and VEGF-165 was obtained from Millipore. Targets were immobilized on a CM5-Sensor via NHS/EDC chemistry (immobilization level ˜1000 RU). Binding molecules were injected at different concentration and affinity was calculated by langmuir 1:1 binding model.
The purified proteins were immobilized on a CM-5 sensor chip (GE Healthcare) using NHS/EDC after PDEA activation resulting in 110-140 RU with a Biacore 3000 system (GE Healthcare). The chip was equilibrated with SPR running buffer (PBS 0.05% Tween pH 7.3). Upon binding, target analyte was accumulated on the surface increasing the refractive index. This change in the refractive index was measured in real time and plotted as response or resonance units versus time. The analytes were applied to the chip in serial dilutions with a flow rate of 30 μl/min. The association was performed for 120 seconds and the dissociation for 120 seconds. After each run, the chip surface was regenerated with 30 μl regeneration buffer (10 mM glycine pH 2.0) and equilibrated with running buffer.
Binding studies were carried out by the use of the BIAcore 3000 (GE Healthcare); data evaluation was operated via the BIAevaluation 3.0 software, provided by the manufacturer, using the Langmuir 1:1 model (RI=0). Evaluated dissociation constants (KD) were standardized against the immobilized protein and indicated. Shown is the change in refractive index measured in real time and plotted as response or resonance unit [RU] versus time [sec].

[3] = Soluble expression in Escherichia coli BL21(DE3); type: physicochemical; settings: expression in E. coli BL21(DE3)
Protocol: Variants with affinity tag were expressed in Escherichia coli BL21(DE3) using a low copy plasmid system under regulation of a T7 promoter. Proteins were produced in soluble form after induction by lactose included in the medium (autoinduction medium). BL21 (DE3) competent cells were transformed with the expression plasmid, spread onto selective agar plates (kanamycin) and incubated overnight at 37° C. Precultures were inoculated from single colony in 3 ml 2×YT medium supplemented with 50 μg/ml kanamycin and cultured for 6 hours at 37° C. at 200 rpm in a conventional orbital shaker in culture tubes. […] Cultures were transferred to an orbital shaker and incubated at 30° C. and 200 rpm. Recombinant protein expression was induced by metabolizing glucose and subsequently allowing lactose to enter the cells. Cells were grown overnight for approx. 17 hours to reach a final OD600 of about 2-4. Before the harvest, the OD600 was measured, samples adjusted to 0.6/OD600 were withdrawn, pelleted and frozen at −20° C. To collect biomass cells were centrifuged at 12000×g for 15 min at 22° C. Pellets were weighed (wet weight). Cells were stored at −20° C. before processing.
as §2

[4] = biological target: T4, recombinant human collagen type II (h Col II) (Homo sapiens, UniProt P02458); assay: KD-determination by ELISA vs human collagen type II; type: binding; settings: for binding affinity (KD) to type II collagen by ELISA, in words: tetramers: of different species
T4 construct: purchased Chondrex CHX-20051
Protocol: as §1

[5] = biological target: T5, 67B89 (domain of fibronectin) (Homo sapiens, UniProt P02751); assay: ELISA specificity vs 67B89; type: binding
T5 construct: unrelated fibronectin domain EDB (67B89) could be observed; made in house; host or cells: E. coli
Protocol: as §1

[6] = biological target: T6, human collagen type V (h Col V) (Homo sapiens, UniProt P05997+P20908); assay: ELISA specificity vs human collagen type V; type: binding
T6 construct: purchased Abcam ab7537
Protocol: as §1

T3 sequence (P02458 182-1241): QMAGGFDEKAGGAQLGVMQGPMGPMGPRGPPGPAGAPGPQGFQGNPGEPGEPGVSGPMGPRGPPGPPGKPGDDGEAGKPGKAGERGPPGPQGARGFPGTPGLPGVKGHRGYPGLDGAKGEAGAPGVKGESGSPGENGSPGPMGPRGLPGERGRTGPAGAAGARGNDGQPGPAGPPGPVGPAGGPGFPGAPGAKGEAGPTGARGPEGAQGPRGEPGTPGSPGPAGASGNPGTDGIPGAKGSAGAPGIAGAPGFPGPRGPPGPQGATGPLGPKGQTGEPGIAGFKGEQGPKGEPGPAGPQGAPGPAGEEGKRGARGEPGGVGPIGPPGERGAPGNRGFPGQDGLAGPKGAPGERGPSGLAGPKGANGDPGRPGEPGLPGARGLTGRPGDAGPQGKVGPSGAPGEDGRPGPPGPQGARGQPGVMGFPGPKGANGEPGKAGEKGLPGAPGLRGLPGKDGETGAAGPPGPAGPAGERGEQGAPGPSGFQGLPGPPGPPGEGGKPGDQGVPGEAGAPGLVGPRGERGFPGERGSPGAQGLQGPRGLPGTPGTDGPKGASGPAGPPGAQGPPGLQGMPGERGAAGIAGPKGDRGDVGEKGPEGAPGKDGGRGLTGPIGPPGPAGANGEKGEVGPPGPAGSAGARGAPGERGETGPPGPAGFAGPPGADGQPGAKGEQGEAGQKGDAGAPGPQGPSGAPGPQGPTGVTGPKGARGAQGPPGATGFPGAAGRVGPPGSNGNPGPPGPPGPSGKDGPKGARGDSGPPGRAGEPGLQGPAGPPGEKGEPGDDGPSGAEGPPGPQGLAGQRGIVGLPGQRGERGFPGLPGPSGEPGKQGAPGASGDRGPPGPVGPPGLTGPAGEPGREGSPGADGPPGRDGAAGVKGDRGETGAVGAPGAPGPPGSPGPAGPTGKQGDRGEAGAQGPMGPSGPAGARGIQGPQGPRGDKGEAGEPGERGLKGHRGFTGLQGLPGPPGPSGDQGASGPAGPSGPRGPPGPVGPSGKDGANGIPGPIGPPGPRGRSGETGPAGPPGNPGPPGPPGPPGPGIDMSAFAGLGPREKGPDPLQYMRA
T4 sequence (P02458 182-1241): as above
T6 sequence (P20908 38-1605 limits assumed): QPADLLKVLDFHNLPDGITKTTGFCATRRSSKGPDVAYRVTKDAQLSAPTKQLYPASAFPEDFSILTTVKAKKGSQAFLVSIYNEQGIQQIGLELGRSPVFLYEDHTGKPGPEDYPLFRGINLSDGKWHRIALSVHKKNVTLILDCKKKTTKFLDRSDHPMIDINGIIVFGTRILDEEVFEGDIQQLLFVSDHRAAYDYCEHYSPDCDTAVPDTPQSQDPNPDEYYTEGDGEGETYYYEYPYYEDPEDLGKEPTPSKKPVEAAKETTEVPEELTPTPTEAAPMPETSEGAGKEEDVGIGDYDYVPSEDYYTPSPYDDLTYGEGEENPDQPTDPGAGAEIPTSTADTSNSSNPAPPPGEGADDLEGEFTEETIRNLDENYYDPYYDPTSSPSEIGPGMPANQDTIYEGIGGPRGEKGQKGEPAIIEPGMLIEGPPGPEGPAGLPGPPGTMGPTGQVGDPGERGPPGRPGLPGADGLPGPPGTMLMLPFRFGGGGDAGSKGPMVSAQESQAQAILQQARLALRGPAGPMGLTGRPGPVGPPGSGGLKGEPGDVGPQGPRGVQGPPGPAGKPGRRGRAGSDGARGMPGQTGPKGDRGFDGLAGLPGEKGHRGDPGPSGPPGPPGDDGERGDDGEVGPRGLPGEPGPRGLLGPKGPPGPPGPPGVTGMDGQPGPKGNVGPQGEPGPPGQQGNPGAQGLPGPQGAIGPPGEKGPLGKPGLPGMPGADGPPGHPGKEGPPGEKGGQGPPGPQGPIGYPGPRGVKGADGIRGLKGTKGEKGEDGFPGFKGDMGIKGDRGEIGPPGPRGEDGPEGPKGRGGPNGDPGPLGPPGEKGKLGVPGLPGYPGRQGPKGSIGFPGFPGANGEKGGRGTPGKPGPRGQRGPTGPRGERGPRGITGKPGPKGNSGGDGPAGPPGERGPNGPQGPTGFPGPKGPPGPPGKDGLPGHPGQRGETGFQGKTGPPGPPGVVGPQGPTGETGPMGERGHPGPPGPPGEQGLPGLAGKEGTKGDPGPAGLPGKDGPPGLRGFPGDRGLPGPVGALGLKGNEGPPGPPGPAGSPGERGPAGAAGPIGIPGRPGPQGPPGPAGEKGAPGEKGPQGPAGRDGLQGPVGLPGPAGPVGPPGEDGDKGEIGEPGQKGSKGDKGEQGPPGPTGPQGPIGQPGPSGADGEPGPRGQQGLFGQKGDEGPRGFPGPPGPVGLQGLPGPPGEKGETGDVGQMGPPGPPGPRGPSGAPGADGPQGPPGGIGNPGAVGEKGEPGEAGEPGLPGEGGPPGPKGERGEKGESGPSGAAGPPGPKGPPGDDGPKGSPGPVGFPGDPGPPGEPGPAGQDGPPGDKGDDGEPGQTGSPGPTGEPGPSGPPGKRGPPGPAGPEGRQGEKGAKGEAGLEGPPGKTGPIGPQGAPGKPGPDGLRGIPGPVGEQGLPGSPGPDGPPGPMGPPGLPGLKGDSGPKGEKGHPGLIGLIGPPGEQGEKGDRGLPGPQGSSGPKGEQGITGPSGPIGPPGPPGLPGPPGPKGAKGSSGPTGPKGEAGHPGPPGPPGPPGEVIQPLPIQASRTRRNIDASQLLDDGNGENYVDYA
T6 sequence (P05997 27-1229 limits assumed): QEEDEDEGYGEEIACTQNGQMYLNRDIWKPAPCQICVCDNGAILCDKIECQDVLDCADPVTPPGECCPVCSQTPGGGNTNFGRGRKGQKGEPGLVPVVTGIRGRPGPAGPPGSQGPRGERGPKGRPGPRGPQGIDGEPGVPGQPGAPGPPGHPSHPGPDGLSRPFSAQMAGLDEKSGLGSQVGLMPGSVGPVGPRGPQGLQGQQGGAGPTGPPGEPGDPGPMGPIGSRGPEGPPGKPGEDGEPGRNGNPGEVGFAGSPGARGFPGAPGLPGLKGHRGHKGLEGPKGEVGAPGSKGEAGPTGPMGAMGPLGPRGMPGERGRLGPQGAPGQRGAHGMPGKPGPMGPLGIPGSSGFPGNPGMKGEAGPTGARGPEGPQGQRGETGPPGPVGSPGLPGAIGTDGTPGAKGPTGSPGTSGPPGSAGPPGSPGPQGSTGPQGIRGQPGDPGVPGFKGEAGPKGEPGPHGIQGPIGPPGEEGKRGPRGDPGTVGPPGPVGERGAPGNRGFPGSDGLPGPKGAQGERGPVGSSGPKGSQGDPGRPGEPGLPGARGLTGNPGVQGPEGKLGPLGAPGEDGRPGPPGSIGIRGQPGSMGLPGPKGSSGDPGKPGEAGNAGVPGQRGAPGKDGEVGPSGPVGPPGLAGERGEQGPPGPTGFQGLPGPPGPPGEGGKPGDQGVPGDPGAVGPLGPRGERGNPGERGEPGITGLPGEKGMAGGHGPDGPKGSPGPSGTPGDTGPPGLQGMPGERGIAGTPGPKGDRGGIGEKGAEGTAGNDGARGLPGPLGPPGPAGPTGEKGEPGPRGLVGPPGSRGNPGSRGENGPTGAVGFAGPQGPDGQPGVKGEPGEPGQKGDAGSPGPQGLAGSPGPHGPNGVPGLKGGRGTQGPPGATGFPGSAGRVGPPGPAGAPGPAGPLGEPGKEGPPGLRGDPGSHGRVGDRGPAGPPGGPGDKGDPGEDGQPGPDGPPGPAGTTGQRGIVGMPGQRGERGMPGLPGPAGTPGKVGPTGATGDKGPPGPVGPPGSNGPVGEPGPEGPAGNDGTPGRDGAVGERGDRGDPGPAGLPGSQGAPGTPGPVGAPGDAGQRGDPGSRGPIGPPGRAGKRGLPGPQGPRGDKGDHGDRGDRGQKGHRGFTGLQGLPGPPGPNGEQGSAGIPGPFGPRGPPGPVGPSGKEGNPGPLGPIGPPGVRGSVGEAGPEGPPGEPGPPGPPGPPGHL
T5 sequence (P02751 1089-1540 limits assumed): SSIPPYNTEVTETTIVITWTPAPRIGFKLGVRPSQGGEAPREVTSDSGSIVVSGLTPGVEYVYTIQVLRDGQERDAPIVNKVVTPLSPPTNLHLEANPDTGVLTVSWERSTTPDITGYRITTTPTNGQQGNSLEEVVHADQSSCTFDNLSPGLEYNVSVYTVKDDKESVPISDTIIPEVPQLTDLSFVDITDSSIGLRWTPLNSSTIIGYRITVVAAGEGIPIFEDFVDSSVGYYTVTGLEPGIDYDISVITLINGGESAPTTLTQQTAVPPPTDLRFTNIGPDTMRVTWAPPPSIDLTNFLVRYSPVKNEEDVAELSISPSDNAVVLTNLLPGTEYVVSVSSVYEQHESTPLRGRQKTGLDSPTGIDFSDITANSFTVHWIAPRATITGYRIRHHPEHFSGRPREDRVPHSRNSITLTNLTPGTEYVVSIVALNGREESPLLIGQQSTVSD

B1: CID 212001: tetramer of SEQ ID NO: 2 (protein)
chain: IAAKFDEAQSAADSEILHLPNLTEQQRHYFRRWLSDDPSVSTHILTQAQHLNDDQAPKIAAKFDEAQSAADSEILHLPNLTEQQRHYFRRWLSDDPSVSTHILTQAQHLNDDQAPKIAAKFDEAQSAADSEILHLPNLTEQQRHYFRRWLSDDPSVSTHILTQAQHLNDDQAPKIAAKFDEAQSAADSEILHLPNLTEQQRHYFRRWLSDDPSVSTHILTQAQHLNDDQAPKSAWSHPQFEK
modifications: Col2 binding protein (tetramer of 211261) (CID212001)
[1]
  binding to type I collagen (ELISA): No unspecific binding
Human collagen type III
  binding to type III collagen (ELISA): No unspecific binding
[2]; FIG. 3, FIG. 4A
  Binding to type II collagen via SPR: binding to type II collagen with high affinity
[2]
  Affinity [SPR] vs hCol2: <0.5 nM
[3]
  Solubility Soluble expression: 100%
[4]
  binding affinity (KD) to type II collagen by ELISA, in words: 3 digit-picomolar
[5]
  binding to domain of fibronectin (67B89) (ELISA): No unspecific binding
[6]
  binding to type V collagen (ELISA): No unspecific binding

B2: CID 211999: dimer of SEQ ID NO: 2 (dimer of directly joint monomers) (protein)
chain: IAAKFDEAQSAADSEILHLPNLTEQQRHYFRRWLSDDPSVSTHILTQAQHLNDDQAPKIAAKFDEAQSAADSEILHLPNLTEQQRHYFRRWLSDDPSVSTHILTQAQHLNDDQAPKSAWSHPQFEK
modifications: Col2 binding protein (dimer of 211261) (CID211999)
[1]
  binding to type I collagen (ELISA): No unspecific binding
Human collagen type III
  binding to type III collagen (ELISA): No unspecific binding
[2]
  Affinity [SPR] vs hCol2: 127 nM
[3]
  Solubility Soluble expression: 100%
[4]
  binding affinity (KD) to type II collagen by ELISA, in words: 1-2-digit nM
[5]
  binding to domain of fibronectin (67B89) (ELISA): No unspecific binding
[6]
  binding to type V collagen (ELISA): No unspecific binding

B3: CID 210987: hetero-dimeric binding protein comprising SEQ ID NO: 10 and SEQ ID NO: 6 linked head-to-tail (protein)
chain: IAAKFDEAQQAAFYEILHLPNLTEQQRNYFIQWLRDDPSVSLEVLGTAQRLNDSQAPKIAAKFDEAQQLAFYQILHLENLTEEQRNAFIQSLRDDPSVSLEVLGEAIKLNLSQAPK
modifications: Col2 binding protein (dimer) 210987
[2]
  Affinity [SPR] vs hCol2: 169 nM
[3]
  Solubility Soluble expression: 80%
[4]
  binding affinity (KD) to human type II collagen (ELISA): 460 nM

B4: CID 210992: heterodimer with SEQ ID NO: 10 as N-terminal monomer (protein)
chain: B3 chain with L100T, I107E, L111Y
modifications: Col2 binding protein (dimer) 210992
[3]
  Solubility Soluble expression: 95%

B5: CID 211027: heterodimer with SEQ ID NO: 10 as N-terminal monomer (protein)
chain: B3 chain with L100A, I107R, L111K
modifications: Col2 binding protein (dimer) 211027
[3]
  Solubility Soluble expression: 85%
